The source of these data is US20040018971A1.

For experiment [1], the target named is HLA-A*0101 (human). Nature of the experiment: competition with 125I-labelled probe peptide for purified HLA-A*0101, gel filtration; ratio = IC50 of standard peptide 944.02 / IC50 of test peptide. The note with it: remark: other sources report otherwise.
For another experiment, the target named is HLA-A*0301 (human). In words: competition with 125I-labelled probe peptide on purified HLA-A*0301, gel filtration; ratio to standard peptide 941.12. The note with it: remark: other sources report otherwise.
Experiment [2] deals with HLA-A*0101 (human). In words: competition with a 125I-labelled probe peptide for purified HLA-A*0101, gel filtration; ratio against the A*0101 standard peptide 944.02 [..] (25 nM). The note with it: remark: other sources report otherwise.
Another experiment addresses HLA-A*1101 (human). Nature of the experiment: competition with 125I-labelled probe peptide on purified HLA-A*1101, relative to standard peptide 940.06. The note with it: remark: other sources report otherwise; scale: ratio.
In experiment [3] the target is HLA-A*2401 (purified HLA class I molecule) (human). Nature of the experiment: competition with 125I-labelled probe peptide for purified HLA, gel filtration. For orientation: Size exclusion chromatography separates by hydrodynamic size, large species first.
Experiment [4] has as its target HLA-A*0101 (human). In words: competition with 125I-labelled probe peptide for purified HLA-A*0101, gel filtration. To be noted: remark: other sources report otherwise; scale: ratio.
The target in experiment [5] is HLA-A*0301 (purified HLA class I molecule) (human). Nature of the experiment: competition with 125I-labelled probe peptide for purified HLA-A*0301, gel filtration. The note with it: remark: other sources report otherwise; scale: ratio.

In the case of VMAGVGSPY [HER2/neu peptide, position 773, 9 amino acids], the relative binding ratio with HLA-A*0101 (human) [1] amounted to 0.04; with HLA-A*1101 (human) it was 0.0079; in the experiment with HLA-A*0101 (human) [4], 0.04. The relative binding ratio (IC50 of standard peptide / IC50 of test peptide) (relative binding ratio) in the experiment with HLA-A*0301 (human) amounted to 0.058. Further, the relative binding ratio (IC50 of standard peptide / IC50 of test peptide) in the experiment with HLA-A*0101 (human) [2] stood at 0.04; in experiment [3], 0.0001.
In the case of CMQIAKGMSY [HER2/neu peptide, position 826, 10 amino acids (…)], the relative binding ratio in experiment [5] came to 0.0003.
